Results taken from paper PMC9089897 (2022).

B1: THSC20.HVTR26 (IgG) (antibody, V domains shown)
VH: EVQLVESGGGLVQPGGSLRLSCAASGFTVSSNYMSWVRQAPGKGLEWVSAIYSGDSTYYADSVKGRFTISRHNPKNTLYLQMNSLRAEDTAVYYCARLVGALTNIVVSGDGGAFDIWGQGTMVTVSS
VL: SYELTQPASVSGSPGQSITISCTGTSSDVGSYNLVSWYQQHPGKAPKLMIYEVSKRPSGVSNRFSGSKSGNTASLTISGLQAEDEVDYYCCSYAGSSTWVFGGGTKLTVL
B2: THSC20.HVTR04 (IgG) (antibody, V domains shown)
VH: QVQLVESGGGVVQPGRSLRLSCAASGFTFSNYAIHWVRQAPGKGLEWVAVVSYDGSNKYYAESVKGRFTISRDNSKNTLSLQMISLRPEDTAVYYCASVADTAMVPEWYFDLWGQGTMVTVSS
VL: QSVLTQPRSVSGSPGQSVTISCTGTSSDVGAYNYVSWYQQHPGKAPKLMIYDVSARPSGVPDRFSGSKSGNTASLTISGLQAEDEADYYCCSYAGSWVFGGGTKLTVL

Columns and labels:
[1] = target: T1, biotinylated avi-tagged SARS-CoV-2 (Wuhan) receptor binding domain (RBD) (SARS-CoV-2 (Wuhan strain), UniProt P0DTC2 319-541); experiment: BLI
[2] = target: T1, biotinylated avi-tagged SARS-CoV-2 …; experiment: BLI; remark: listed apart in the source

Binder | koff [1] | Kd [2]
B1 | 0.000131 s⁻¹ | 255 pM
B2 | 9.15e-05 s⁻¹ | 
